Data on six molecules can be found in patent publication US7763418B2, “Detection of Rho proteins” (Cytoskeleton, Inc., priority 2005, dated 2010).

For assay [1], the system named is RhoA. Put plainly: GST-Rhotekin-RBD pull-down assay of calpeptin treated HeLa cell lysates. To be noted: calpeptin 30 minutes, 500 μg lysate. Type of assay: cell-based.
The subject of assay [2] is RhoA. Kind of assay: RhoA G-LISA of calpeptin treated HeLa cell lysates. Type of assay: cell-based. To be noted: calpeptin 30 minutes. Here is the method:
Active Rho protein (typically 7-15 μg total cell lysate or 1-5 ng of constitutively active recombinant protein) were either added directly to the effector bound G-LISA plate (Rac1 and Cdc42 G-LISAs) or diluted with an equal volume of Binding Buffer (20% PEG 8000, Sigma, St. Louis, Mo.) prior to adding to effector bound plates (RhoA G-LISA). The reactions were incubated for 30 minutes at 4° C. on a microtiter titer plate shaker after which wells were washed once with 200 μl of PBST (PBS pH 7.2, 0.05% Tween-20) and immediately treated with 200 μl of Antigen Presenting Buffer (1% trichloroacetic acid (TCA)) for 2-5 minutes at room temperature. Wells were then washed three times with 200 μl each of PBST and primary antibody is added typically at 1 μg/ml (RhoA specific), 0.25 μg/ml (Rac1 specific), 1 μg/ml (Cdc42 specific) and incubated at room temperature for 45 minutes (incubation at 4° C. gave similar results). […] After three washes each of 200 μl PBST the activated Rho proteins are detected using absorbance or luminescence detection as described below. […]
Referring to FIG. 10, 25 μl of serum starved or Calpeptin treated (RhoA activated) Hela cell lysate at concentration of 4, 2, 1, 0.5, 0.25, 0.12, 0.06 mg/ml were mixed with same volume of Binding Buffer and subjected to RhoA G-LISA assay followed by absorbance detection. […] All readings had buffer only background subtracted. […]

The target of assay [3] is T1, RhoA (63L) (Homo sapiens, UniProt P61586, Q63L).
T1 construct: purchased Cytoskeleton Inc. R6301
T1 sequence (P61586 whole entry Q63L): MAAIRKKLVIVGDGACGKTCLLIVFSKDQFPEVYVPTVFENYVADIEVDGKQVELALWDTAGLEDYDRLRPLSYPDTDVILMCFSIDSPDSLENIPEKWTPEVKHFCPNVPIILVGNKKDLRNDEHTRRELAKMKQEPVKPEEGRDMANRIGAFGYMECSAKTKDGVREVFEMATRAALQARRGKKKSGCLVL
Kind of assay: G-LISA on effector-GBD plates with constitutively active RhoA. Type of assay: binding. The settings on record: 5 ng constitutively active RhoA; detection with the plate's GTPase specific antibody. How it is done:
(§1) Effector-GBD peptide (ROCK1, POSH or WASP, see Table 2) was diluted in coating buffer (PBS pH 7.2, plus 1 mM EDTA) to a final concentration 0.05 mg/ml and 5 μg of peptide was added to the wells of maleimide plates (Corning Inc., Catalog #2510). Plates were incubated at 21° C. for 2 hours, washed twice in PBS pH 7.2. Plates were blocked for 1 hour at room temperature with milk (typically 0.1-5%, depending upon effector-GBD). After two washes with PBS (pH 7.2), Lyophilization Buffer was added to each well (5% sucrose and 1% dextran) and the plates were lyophilized and stored desiccated at 4° C. […]
(§2) Active Rho protein (typically 7-15 μg total cell lysate or 1-5 ng of constitutively active recombinant protein) were either added directly to the effector bound G-LISA plate (Rac1 and Cdc42 G-LISAs) or diluted with an equal volume of Binding Buffer (20% PEG 8000, Sigma, St. Louis, Mo.) prior to adding to effector bound plates (RhoA G-LISA). […] After three washes each of 200 μl PBST the activated Rho proteins are detected using absorbance or luminescence detection as described below.
Referring to FIG. 2A, lysis buffer only (Blank), 5 ng of RhoA (63L), Cdc42 (61L) or Rac1 (61L) were subjected to a RhoA G-LISA assay as detailed in materials and methods, and RhoA signal was detected by luminometry as described in materials and methods. […]

In assay [4] the target is T2, Rac1 (61L) (Homo sapiens, UniProt P63000, Q61L).
T2 construct: His; purchased Cytoskeleton Inc. R6101
Put plainly: G-LISA on effector-GBD plates with constitutively active Rac1. The assay is classed as binding. To be noted: 5 ng constitutively active Rac1; detection with the plate's GTPase specific antibody. How it is done:
as §1, §2
Referring to FIG. 2B, lysis buffer only (Blank), 5 ng of Rac1 (61L), or RhoA (63L) were subjected to a Rac1 G-LISA assay as detailed in materials and methods (Example 2), and Rac1 signal was detected by absorbance at 490 nm as described in materials and methods (Example 2). […]

The target of assay [5] is T3, Cdc42 (61L) (Homo sapiens, UniProt P60953, Q61L).
T3 construct: His; purchased Cytoskeleton Inc. C6101
T3 sequence (P60953 whole entry Q61L): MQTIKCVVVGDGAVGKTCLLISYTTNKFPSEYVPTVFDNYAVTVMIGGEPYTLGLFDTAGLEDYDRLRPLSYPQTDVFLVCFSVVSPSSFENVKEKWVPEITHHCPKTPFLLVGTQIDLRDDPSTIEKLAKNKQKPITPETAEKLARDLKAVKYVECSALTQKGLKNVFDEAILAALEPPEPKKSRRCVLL
Put plainly: G-LISA on effector-GBD plates with constitutively active Cdc42. Type of assay: binding. To be noted: 5 ng constitutively active Cdc42; detection with the plate's GTPase specific antibody. Here is the method: as §1, §2
Referring to FIG. 2C, lysis buffer only (Blank), 5 ng of Cdc42 (61L) or Rac1 (61L) were subjected to a Cdc42 G-LISA assay as detailed in materials and methods (Example 2), and Cdc42 signal was detected by absorbance at 490 nm as described in materials and methods (Example 2).

The target in assay [6] is Rac1 (Homo sapiens, UniProt P63000). To be noted: read-out: published affinity Rac1:PAK; cited from earlier work.

Turning to `CCCC[C@@H](C=O)NC(=O)[C@H](CC(C)C)NC(=O)OCc1ccccc1` [calpeptin], in assay [1], the “RhoA fold activation above serum starved lysate, pull-down densitometry” value was “approximately 2 fold”. The “RhoA fold activation versus serum starved, G-LISA” value in assay [2] (lysate 0.25 mg/ml to 2 mg/ml (6.25-50 μg)) is “approximately 2 fold”; in assay [2] (lysate 4 mg/ml (100 μg)) it was 1.7 fold.

B1: rhotekin-Cys: synthetic rhotekin-GBD, three internal cysteines replaced, cysteine at carboxy terminal (protein)
chain: ILEDLNMLYIRQMALSLEDTELQRKLDHEIRMRDGAEKLLAALSQREQALEATKSLLVSNSRILSYMGELQRRKEAQVLEKTGRRCS
Regarding B1, the “G-LISA signal above background (buffer only)” value (“G-LISA signal above background” below) in assay [3] is listed as 6 fold.

B2: ROCK1-GBD: Histidine-tagged GBD of human ROCK1 (amino acids 847-1024), carboxy terminal cysteine, linked to maleimide plate (protein)
chain: EAEQYFSTLYKTQVKELKEEIEEKNRENLKKIQELQNEKETLATQLDLAETKAESEQLARGLLEEQYFELTQESKKAASRNRQEITDKDHTVSRLEEANSMLTKDIEILRRENEELTEKMKKAEEEYKLEKEEEISNLKAAFEKNINTERTLKTQAVNKLAEIMNRKDFKIDRKKANTC
modifications: left off: small tags and cut ends
On to B2, for which the “G-LISA signal above background” value in assay [4] and in assay [5] was “did not give a signal above background” each time.

B3: PAK-GST: GST-tagged GTPase Binding Domain of human PAK1 (amino acids 68-151), Rac1/Cdc42 effector (protein)
chain: KEKERPEISLPSDFEHTIHVGFDAVTGEFTGMPEQWARLLQTSNITKSEQKKNPQAVLDVLEFYNSKKTSNSQKYMSFTDKSAEC
modifications: left off: a dimerising Fc or GST
With B3, the Kd in assay [6] was about 20 nM.

B4: POSH: Histidine-tagged GBD of human POSH (amino acids 291-363) linked to maleimide plate (protein, UniProt Q7Z6J0 1-888, looked up)
E3 ubiquitin-protein ligase …: MDESALLDLLECPVCLERLDASAKVLPCQHTFCKRCLLGIVGSRNELRCPECRTLVGSGVEELPSNILLVRLLDGIKQRPWKPGPGGGSGTNCTNALRSQSSTVANCSSKDLQSSQGGQQPRVQSWSPPVRGIPQLPCAKALYNYEGKEPGDLKFSKGDIIILRRQVDENWYHGEVNGIHGFFPTNFVQIIKPLPQPPPQCKALYDFEVKDKEADKDCLPFAKDDVLTVIRRVDENWAEGMLADKIGIFPISYVEFNSAAKQLIEWDKPPVPGVDAGECSSAAAQSSTAPKHSDTKKNTKKRHSFTSLTMANKSSQASQNRHSMEISPPVLISSSNPTAAARISELSGLSCSAPSQVHISTTGLIVTPPPSSPVTTGPSFTFPSDVPYQAALGTLNPPLPPPPLLAATVLASTPPGATAAAAAAGMGPRPMAGSTDQIAHLRPQTRPSVYVAIYPYTPRKEDELELRKGEMFLVFERCQDGWFKGTSMHTSKIGVFPGNYVAPVTRAVTNASQAKVPMSTAGQTSRGVTMVSPSTAGGPAQKLQGNGVAGSPSVVPAAVVSAAHIQTSPQAKVLLHMTGQMTVNQARNAVRTVAAHNQERPTAAVTPIQVQNAAGLSPASVGLSHHSLASPQPAPLMPGSATHTAAISISRASAPLACAAAAPLTSPSITSASLEAEPSGRIVTVLPGLPTSPDSASSACGNSSATKPDKDSKKEKKGLLKLLSGASTKRKPRVSPPASPTLEVELGSAELPLQGAVGPELPPGGGHGRAGSCPVDGDGPVTTAVAGAALAQDAFHRKASSLDSAVPIAPPPRQACSSLGPVLNESRPVVCERHRVVVSYPPQSEAELELKEGDIVFVHKKREDGWFKGTLQRNGKTGLFPGSFVENI
Consider B4, for which, in assay [3], the “G-LISA signal above background” value is recorded as “barely above background”.

B5: WASP: Histidine-tagged GBD of human WASP (amino acids 201-321), carboxy terminal cysteine, linked to maleimide plate (protein)
chain: DIQNPDITSSRYRGLPAPGPSPADKKRSGKKKISKADIGAPSGFKHVSHVGWDPQNGFDVNNLDPDLRSLFSRAGISEAQLTDAETSKLIYDFIEDQGGLEAVRQEMRRQEPLPPPPPPSRC
modifications: left off: small tags and cut ends
notes: Histidine-tagged GBD of human WASP (amino acids 201-321), carboxy terminal cysteine, linked to maleimide plate
Consider B5, for which, in assay [4], the “G-LISA signal above background” value was “did not give a signal above background”.
